23 molecules from patent publication US20150098955A1 (VIELA BIO, published 2015) can be followed below.

The target in assay [1] is Murine CD40L on cells (D10.G4 / D10G4.1 cells; activated murine T cells) (murine) (UniProt P27548). Put plainly: cell-based or functional assay.
Assay [2] has as its target Murine MegaCD40L (Axxora, cat. ALX522120) (murine) (UniProt P27548). Nature of the assay: cell-based or functional assay.
The target in assay [3] is T1, Recombinant human CD40L (Human MegaCD40L; Axxora) (human, UniProt P29965 47-261, biotinylated with EZ-Link sulfo-NHS-biotin where used in the plate binding assay).
T1 construct: extracellular domain; Bought construct (Axxora ALX522110): two trimeric CD40 ligands linked via the ACRP30 collagen domain; also called biotinylated Human MegaCD40L; Mega human CD40L; not shown: FLAG tag and collagen domain of ACRP30/adiponectin that links two CD40L trimers
T1 sequence (looked up): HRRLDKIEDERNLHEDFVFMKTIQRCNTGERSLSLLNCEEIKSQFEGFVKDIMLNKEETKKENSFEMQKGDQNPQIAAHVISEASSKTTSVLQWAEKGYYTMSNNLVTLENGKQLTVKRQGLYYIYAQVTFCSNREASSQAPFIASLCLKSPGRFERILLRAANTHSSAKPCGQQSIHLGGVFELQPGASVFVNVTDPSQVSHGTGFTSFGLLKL
Nature of the assay: capture ELISA: His-tagged Tn3 captured on anti-His antibody, biotinylated Human MegaCD40L detected with SA-HRP. (In an ELISA, binding on a coated surface is turned into a signal by an enzyme label.)

Assay [4] addresses T1, Recombinant human CD40L (Human …). Nature of the assay: ProteOn XPR36 biosensor, human MegaCD40L immobilized on GLC chip, purified Tn3 as analyte. As to the method: Outputs were pool cloned into the soluble secretion vector as previously described, and five 96-well plates were screened for CD40L binding using the soluble protein screening assay described previously. Positive hits were identified relative to the signal obtained with the 311K4E backbone variant. […] PBS, 0.005% Tween20, 3 mM EDTA, pH7.4 was used as running buffer. Off-rates were ranked by visual inspection of the sensorgrams.

Assay [5] concerns the target T2, Human CD40L, membrane form, on cells (Jurkat D1.1 cells; activated primary human T cells) (human, UniProt P29965 1-261).
T2 sequence: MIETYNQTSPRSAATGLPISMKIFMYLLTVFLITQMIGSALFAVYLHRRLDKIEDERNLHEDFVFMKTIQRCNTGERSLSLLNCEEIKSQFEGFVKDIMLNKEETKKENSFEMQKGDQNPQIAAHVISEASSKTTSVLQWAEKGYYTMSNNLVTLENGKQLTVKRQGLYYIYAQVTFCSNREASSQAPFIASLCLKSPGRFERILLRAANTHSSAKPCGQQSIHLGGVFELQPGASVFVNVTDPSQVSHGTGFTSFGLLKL
Nature of the assay: cell-based or functional assay.

Assay [6] addresses Human CD40L, membrane form, on cells (Jurkat D1.1 cells; activated primary human T cells) (human) (UniProt P29965). Nature of the assay: cell-based or functional assay.
Assay [7] addresses T2, Human CD40L, membrane form, on cells …. Nature of the assay: cell-based or functional assay. This is another data set of the same source.
The target of assay [8] is T1, Recombinant human CD40L (Human …). Put plainly: ProteOn XPR36 biosensor, human MegaCD40L immobilized on GLC chip, Tn3 as analyte, equilibrium analysis, 25 C. The protocol:
ProteOn phosphate buffered saline with 0.005% Tween 20, pH 7.4 (PBS/Tween) was used as running buffer. Human MegaCD40L was immobilized on the chip at a surface density of approximately 2300 RU. […] Samples of each concentration were injected into the six analyte channels at a flow rate of 30 μl/min. for 300 seconds. The Kd was determined by using the equilibrium analysis setting within the ProteOn software.

For “MR1 anti-murine CD40L monoclonal antibody”, in assay [1], the IC50, inhibition of CD86 up regulation on CD19+ B cells (PBMC stimulated with D10.G4 cells) came out at 0.23 nM. In assay [2], this molecule had an IC50, inhibition of CD40L-induced NFκB activity of 0.2 nM.

B1: 309 variant with the DE loop changed to the parent Tn3 DE loop sequence (designed binder)
chain: AIEVKDVTDTTALITWSDEFGHYDGCELTYGIKDVPGDRTTIDLTEDENQYSIGNLKPDTEYEVSLICYTDQEAGNPAKETFTTGGGTLGHHHHHHHH
On to B1, for which the binding result in assay [3] was “no binding”.

B2: Clone 311K4E_15 - Clone Variant from second round of affinity maturation (designed binder)
chain: AIEVEDVTDTTALITWTNRSSYANYHHCELTYGIKDVPGDRTTIDLELYVHYSIGNLKPDTEYEVSLICLTTDGTYSNPAKETFTTGGGTLGHHHHHHHH
notes: Secreted His8-tagged form
Take B2: the Kd (in general, the constant that tells how readily two partners part at equilibrium) in assay [4] stood at 1.6 nM.

B3: 309 variant with the BC loop changed to the parent Tn3 BC loop sequence (designed binder)
chain: AIEVKDVTDTTALITWFKPLAEIDGCELTYGIKDVPGDRTTIDLWWHSAWYSIGNLKPDTEYEVSLICYTDQEAGNPAKETFTTGGGTLGHHHHHHHH
For the molecule B3, the binding result in assay [3] is on record as “no binding”.

B4: 311-3GS bivalent tandem scaffold (designed binder)
chain: IEVKDVTDTTALITWTNRSSYYNLHGCELTYGIKDVPGDRTTIDLSSPYVHYSIGNLKPDTEYEVSLICLTTDGTYSNPAKETFTTGGGGSGGGGSGGGGSIEVKDVTDTTALITWTNRSSYYNLHGCELTYGIKDVPGDRTTIDLSSPYVHYSIGNLKPDTEYEVSLICLTTDGTYSNPAKETFTT
Turning to B4, the “fold improvement over monovalent 311, inhibition of human CD40L-induced expression on CD19 positive human PBMCs” value in assay [5] was about 7 fold.

B5: 311 variant with the BC loop changed to the parent Tn3 BC loop sequence (designed binder)
chain: AIEVKDVTDTTALITWFKPLAEIDGCELTYGIKDVPGDRTTIDLSSPYVHYSIGNLKPDTEYEVSLICLTTDGTYSNPAKETFTTGGGTLGHHHHHHHH
As for B5, the binding result in assay [3] is reported as “no binding”.

B6: 311-7GS bivalent tandem scaffold (designed binder)
chain: IEVKDVTDTTALITWTNRSSYYNLHGCELTYGIKDVPGDRTTIDLSSPYVHYSIGNLKPDTEYEVSLICLTTDGTYSNPAKETFTTGGGGSGGGGSGGGGSGGGGSGGGGSGGGGSGGGGSIEVKDVTDTTALITWTNRSSYYNLHGCELTYGIKDVPGDRTTIDLSSPYVHYSIGNLKPDTEYEVSLICLTTDGTYSNPAKETFTT
Take B6: the fold improvement over monovalent 311, inhibition of human CD40L-induced expression on CD19 positive human PBMCs in assay [6] worked out at 7 fold.

B7: Clone 309FGwt - Parental clone with 'humanized' FG loop (designed binder)
chain: AIEVKDVTDTTALITWSDEFGHYDGCELTYGIKDVPGDRTTIDLWWHSAWYSIGNLKPDTEYEVSLICRRGDMSSNPAKETFTTGGGTLGHHHHHHHH
In the case of B7, the “PBMC IC50” value in assay [7] is 760 nM.

B8: Clone 344 - Affinity Mature variant (designed binder)
chain: AIEVKDVTDTTALITWSDEVGDYVVCELTYGIKDVPGDRTTIDLWYHMAWYSIGNLKPDTEYEVSLICRRGDMSSNPAKETFTTGGGTLGHHHHHHHH
Take B8: the “PBMC IC50” value in assay [7] turned out to be 1.3 nM.

B9: Clone 347 - Affinity Mature variant (designed binder)
chain: AIEVKDVTDTTALITWSDEVGQYVGCELTYGIKDVPGDRTTIDLWYHMAWYSIGNLKPDTEYEVSLICRRGDMSSNPAKETFTTGGGTLGHHHHHHHH
notes: Secreted His8-tagged form
For B9, the “PBMC IC50” value in assay [7] turned out to be 11 nM. Further, in assay [8], the Kd was 10.7 nM.

B10: Clone 343 - Affinity Mature variant (designed binder)
chain: AIEVKDVTDTTALITWLDDWGSYHVCELTYGIKDVPGDRTTIDLWYHQAWYSIGNLKPDTEYEVSLICRRGDMSSNPAKETFTTGGGTLGHHHHHHHH
notes: Secreted His8-tagged form
For B10, in assay [7], the “PBMC IC50” value is 0.6 nM. In assay [8], the Kd was found to be 2 nM.

B11: Clone 309 - Parental clone isolated from naive Tn3 library (designed binder)
chain: AIEVKDVTDTTALITWSDEFGHYDGCELTYGIKDVPGDRTTIDLWWHSAWYSIGNLKPDTEYEVSLICYTDQEAGNPAKETFTTGGGTLGHHHHHHHH
notes: Secreted His8-tagged form purified on Ni-NTA
In the case of B11, in assay [7], the “PBMC IC50” value is 226 nM. For the same molecule, the dissociation constant Kd in assay [8] is 191 nM.

B12: Clone 345 - Affinity Mature variant (designed binder)
chain: AIEVKDVTDTTALITWSDDFAEYVGCELTYGIKDVPGDRTTIDLWWHSAWYSIGNLKPDTEYEVSLICRRGDMSSNPAKETFTTGGGTLGHHHHHHHH
notes: Secreted His8-tagged form
Regarding B12, the “PBMC IC50” value in assay [7] was determined as 37.3 nM. In addition, in assay [8], the Kd was determined as 39 nM.

B13: Clone 340 - Affinity Mature variant (designed binder)
chain: AIEVKDVTDTTALITWSDDFDNYEWCELTYGIKDVPGDRTTIDLWYHMAWYSIGNLKPDTEYEVSLICRRGDMSSNPAKETFTTGGGTLGHHHHHHHH
notes: Secreted His8-tagged form
As to B13, the “PBMC IC50” value in assay [7] was determined as 0.7 nM. The dissociation constant Kd in assay [8] turned out to be 2.2 nM.

B14: Clone 348 - Affinity Mature variant (designed binder)
chain: AIEVKDVTDTTALITWSDDIGLYVWCELTYGIKDVPGDRTTIDLWFHQAWYSIGNLKPDTEYEVSLICRRGDMSSNPAKETFTTGGGTLGHHHHHHHH
notes: Secreted His8-tagged form
On to B14, for which the “PBMC IC50” value in assay [7] worked out at 1 nM. The Kd in assay [8] was determined as 1.8 nM.

B15: Clone 346 - Affinity Mature variant (designed binder)
chain: AIEVKDVTDTTALITWSDDFEEYVVCELTYGIKDVPGDRTTIDLWWHSAWYSIGNLKPDTEYEVSLICRRGDMSSNPAKETFTTGGGTLGHHHHHHHH
notes: Secreted His8-tagged form
Regarding B15, in assay [7], the “PBMC IC50” value is 9 nM. Further, the dissociation constant (Kd) in assay [8] turned out to be 14.9 nM.

B16: Clone 341 - Affinity Mature variant (designed binder)
chain: AIEVKDVTDTTALITWSDDFADYVWCELTYGIKDVPGDRTTIDLWWHSAWYSIGNLKPDTEYEVSLICRRGDMSSNPAKETFTTGGGTLGHHHHHHHH
As to B16, the “PBMC IC50” value in assay [7] came to 0.7 nM.

B17: Clone 349 - Affinity Mature variant (designed binder)
chain: AIEVKDVTDTTALITWSDEHAEFIGCELTYGIKDVPGDRTTIDLWWHSAWYSIGNLKPDTEYEVSLICRRGDMSSNPAKETFTTGGGTLGHHHHHHHH
notes: Secreted His8-tagged form
As for B17, in assay [7], the “PBMC IC50” value came out at 38.2 nM. The Kd in assay [8] worked out at 21 nM.

B18: 311 variant with the DE loop changed to the parent Tn3 DE loop sequence (designed binder)
chain: AIEVKDVTDTTALITWTNRSSYYNLHGCELTYGIKDVPGDRTTIDLTEDENQYSIGNLKPDTEYEVSLICLTTDGTYSNPAKETFTTGGGTLGHHHHHHHH
B18: the binding result in assay [3] is “no binding”.

B19: Clone 311K4E - Variant from first round of affinity maturation (designed binder)
chain: AIEVEDVTDTTALITWTNRSSYYNLHGCELTYGIKDVPGDRTTIDLSSPYVHYSIGNLKPDTEYEVSLICLTTDGTYSNPAKETFTTGGGTLGHHHHHHHH
notes: Secreted His8-tagged form
As to B19, the “fold increase in potency over 311 in the PBMC assay” value in assay [5] was about 100 fold. Also, the Kd in assay [4] is 18 nM.

B20: Clone 311K4E_11 - Clone Variant from second round of affinity maturation (designed binder)
chain: AIEVEDVTDTTALITWTNRSSYANLPGCELTYGIKDVPGDRTTIDLNSPYVHYSIGNLKPDTEYEVSLICLTTDGTYSNPAKETFTTGGGTLGHHHHHHHH
notes: Secreted His8-tagged form
As to B20, the Kd in assay [4] turned out to be 6.3 nM.

B21: Clone 311K4E_12 - Clone Variant from second round of affinity maturation (designed binder)
chain: AIEVEDVTDTTALITWTNRSSYSNLHGCELAYGIKDVPGDRTTIDLNQPYVHYSIGNLKPDTEYEVSLICLTTDGTYNNPAKETFTTGGGTLGHHHHHHHH
notes: Secreted His8-tagged form
With B21, the “fold increase in potency in the PBMC assay relative to 311K4E” value in assay [5] was determined as 12 fold. Moreover, the dissociation constant (Kd) in assay [4] was 1.1 nM.

B22: Clone 311K4E_3 - Clone Variant from second round of affinity maturation (designed binder)
chain: AIEVEDVTDTTALITWINRSSYHNFPHCELAYGIKDVPGDRTTIDLNSPYVHYSIGNLKPDTEYEVSLICLTTDGTYSNPAKETFTTGGGTLGHHHHHHHH
notes: Secreted His8-tagged form
On to B22, for which the Kd in assay [4] turned out to be 6.4 nM.
